Earlier results on 1 substance are cited in article PMC11932923.

The target in this series is IL-36R (Homo sapiens) (UniProt Q9HB29). Nature of the series: Biacore SPR.

pKd: −log10 of the molar value.

Chain of UniProt Q9HB29 (Q9HB29 20-575): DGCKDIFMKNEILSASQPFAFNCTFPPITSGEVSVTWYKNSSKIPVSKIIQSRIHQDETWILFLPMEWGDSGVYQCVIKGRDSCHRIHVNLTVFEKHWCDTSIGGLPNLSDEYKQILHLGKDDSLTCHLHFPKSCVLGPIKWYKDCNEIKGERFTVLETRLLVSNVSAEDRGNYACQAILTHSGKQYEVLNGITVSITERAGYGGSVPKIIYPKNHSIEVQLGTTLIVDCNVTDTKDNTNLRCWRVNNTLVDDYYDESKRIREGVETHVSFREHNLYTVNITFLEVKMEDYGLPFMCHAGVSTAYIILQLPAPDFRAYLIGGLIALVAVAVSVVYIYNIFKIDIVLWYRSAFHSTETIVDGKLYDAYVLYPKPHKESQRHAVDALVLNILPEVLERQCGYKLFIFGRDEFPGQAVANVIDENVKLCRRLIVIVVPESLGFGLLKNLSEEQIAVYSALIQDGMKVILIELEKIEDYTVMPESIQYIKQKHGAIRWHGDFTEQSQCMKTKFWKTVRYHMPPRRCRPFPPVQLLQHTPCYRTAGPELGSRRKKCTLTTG

The pKd is the Kd on a negative log10 scale, so that one unit is a factor of ten. For “IL-36β (N-terminally truncated) (from UniProt Q9NZH7)”, the pKd is 11.15.
